For one assay, the target named is T1, P62 (huANGPTL7-his) (human, UniProt O43827 27-346).
T1 construct: not shown: C-terminal short linker and His tag
T1 chain: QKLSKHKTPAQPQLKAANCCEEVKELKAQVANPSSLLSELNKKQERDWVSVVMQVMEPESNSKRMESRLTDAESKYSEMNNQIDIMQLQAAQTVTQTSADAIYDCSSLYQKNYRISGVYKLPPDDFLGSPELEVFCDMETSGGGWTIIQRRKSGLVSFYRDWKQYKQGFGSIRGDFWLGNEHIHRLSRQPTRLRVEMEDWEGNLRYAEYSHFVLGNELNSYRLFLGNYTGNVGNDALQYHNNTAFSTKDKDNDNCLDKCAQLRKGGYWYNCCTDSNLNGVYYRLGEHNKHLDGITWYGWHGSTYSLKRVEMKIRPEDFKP
Kind of assay: BLI Octet HTX; IgG on AHC sensor; P62 0.343-250 nM; global 1:1 fit. The method, then: Experiments were also conducted to determine the reactivity and dissociation constants (KD) of anti-ANGPTL7 antibodies with the human ANGPTL7-his protein. Binding experiments were performed on Octet HTX (ForteBio) in 1×PBS, pH 7.4, 0.1 mg/mi BSA, 0.05% Sodium Azide, and 0.02% Tween 20. To measure monovalent binding kinetics, antibodies at a concentration of 50 nM were loaded on pre-hydrated AHC biosensors for 5 min. The loaded sensors were dipped into monovalent P62 (huANGPTL7-his) at a range of concentration from 0.343-250 nM (a serial 3-fold dilution) for 5 min association, followed by 10 min dissociation.
On the technique in general: Biolayer interferometry detects binding as a change in optical thickness at a sensor tip.

Assay [1] addresses T2, muANGPTL7-his (R&D Systems) (mouse, UniProt Q8R1Q3 22-337, limits assumed).
T2 construct: Bought protein; also called mouse ANGPTL7 protein
T2 sequence (looked up): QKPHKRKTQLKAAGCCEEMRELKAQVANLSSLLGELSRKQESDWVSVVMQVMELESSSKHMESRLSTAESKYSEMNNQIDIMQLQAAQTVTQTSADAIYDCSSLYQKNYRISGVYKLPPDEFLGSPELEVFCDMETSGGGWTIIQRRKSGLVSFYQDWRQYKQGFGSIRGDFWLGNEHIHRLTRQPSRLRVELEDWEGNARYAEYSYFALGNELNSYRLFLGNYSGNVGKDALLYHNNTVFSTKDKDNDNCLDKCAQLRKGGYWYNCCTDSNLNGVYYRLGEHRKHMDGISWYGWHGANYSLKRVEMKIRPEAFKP
Kind of assay: BLI Octet HTX; IgG on AHC sensor; muANGPTL7-his at 200 nM; 1:1 fit. The method, then:
(§1) Experiments were also conducted to determine the reactivity and dissociation constants (KD) of anti-ANGPTL7 antibodies with the mouse ANGPTL7 protein. Binding experiments were performed on Octet HTX (ForteBio) in 1×PBS, pH 7.4, 0.1 mg/mi BSA, 0.05% Sodium Azide, and 0.02% Tween 20. Antibodies at a concentration of 50 nM were loaded on pre-hydrated AHC biosensors for 5 mA. The loaded sensors were dipped into monovalent muANGPTL7-his (R&D Systems) at a concentration of 200 nM for 5 min of association, followed by 10 min of dissociation. […] Responses (nm) at the end of association were also determined (Table 5).

Assay [2] deals with T2, muANGPTL7-his (R&D Systems). As to the kind of experiment: BLI Octet HTX; IgG on AHC sensor; muANGPTL7-his at 200 nM. The method, then: as §1
Assay [3] addresses T3, P60 (huANGPTL7-Fibrinogen-his) (human, UniProt O43827 129-343).
T3 construct: also called human ANGPTL7 fibrinogen domain; not shown: C-terminal short linker and His tag
T3 sequence: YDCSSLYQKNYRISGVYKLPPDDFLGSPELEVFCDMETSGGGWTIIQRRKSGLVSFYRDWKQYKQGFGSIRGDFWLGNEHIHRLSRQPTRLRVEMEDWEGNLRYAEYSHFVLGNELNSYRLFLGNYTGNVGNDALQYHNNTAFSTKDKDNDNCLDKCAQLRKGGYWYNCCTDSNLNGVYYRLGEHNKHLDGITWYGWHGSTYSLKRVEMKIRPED
Kind of assay: BLI Octet HTX; IgG on AHC sensor; P60 at 200 nM; 1:1 fit. The method, then: (§2) ANGPTL7 Antibody Kinetics. Experiments were conducted to determine the reactivity and dissociation constants (KD) of anti-ANGPTL7 antibodies with the human fibrinogen domain of the ANGPTL7 protein. Binding experiments were performed on Octet HTX (ForteBio) in 1×PBS, pH 7.4, 0.1 mg/ml BSA, 0.05% Sodium Azide, and 0.02 Tween 20. Antibodies at a concentration of 50 nM were loaded on pre-hydrated AHC biosensors for 5 min. The loaded sensors were dipped into monovalent P60 (huANGPTL7-Fibrinogen-his) at a concentration of 200 nM for 5 min association, followed by 10 min dissociation. […] Responses (nm) at the end of association were also determined (Table 2).

The target of assay [4] is T4, Pext-01 (huANGTPL7-FLAG multimer) (human, UniProt O43827 27-346).
T4 construct: also called PExt-1; human wild type ANGPTL7 multimer; not shown: FLAG tag
T4 sequence: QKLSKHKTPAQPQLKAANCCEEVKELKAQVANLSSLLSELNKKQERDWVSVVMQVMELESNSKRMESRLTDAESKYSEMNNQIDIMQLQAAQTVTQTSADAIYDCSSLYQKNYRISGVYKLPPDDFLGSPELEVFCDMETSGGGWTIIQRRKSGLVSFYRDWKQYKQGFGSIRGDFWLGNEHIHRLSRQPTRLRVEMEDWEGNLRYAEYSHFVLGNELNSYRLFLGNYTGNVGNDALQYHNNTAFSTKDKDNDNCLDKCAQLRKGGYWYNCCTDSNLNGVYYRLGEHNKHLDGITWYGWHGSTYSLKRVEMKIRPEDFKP
As to the kind of experiment: BLI Octet HTX; IgG on AHC sensor; Pext-01 at 100 nM; 1:1 fit; apparent KD. The method, then:
Experiments were also conducted to determine the reactivity and dissociation constants (KD) of anti-ANGPTL7 antibodies with the human ANGPTL7 multimer protein. Binding experiments were performed on Octet HTX (ForteBio) in 1×PBS, pH 7.4, 0.1 mg/ml BSA, 0.05% Sodium Azide, and 0.02% Tween 20. Antibodies at a concentration of 50 nM were loaded on pre-hydrated AHC biosensors for 5 mi. The loaded sensors were dipped into Pext-01 (huANGTPL7-FLAG) at a concentration of 100 nM for 5 min of association, followed by 10 min of dissociation. […] Responses (nm) at the end of association were also determined (Table 7).

Another assay addresses T5, P66 (rabbit ANGPTL7-his) (rabbit, UniProt G1T4P1 27-344).
T5 construct: mature; also called rabbit ANGPTL7 protein
T5 sequence: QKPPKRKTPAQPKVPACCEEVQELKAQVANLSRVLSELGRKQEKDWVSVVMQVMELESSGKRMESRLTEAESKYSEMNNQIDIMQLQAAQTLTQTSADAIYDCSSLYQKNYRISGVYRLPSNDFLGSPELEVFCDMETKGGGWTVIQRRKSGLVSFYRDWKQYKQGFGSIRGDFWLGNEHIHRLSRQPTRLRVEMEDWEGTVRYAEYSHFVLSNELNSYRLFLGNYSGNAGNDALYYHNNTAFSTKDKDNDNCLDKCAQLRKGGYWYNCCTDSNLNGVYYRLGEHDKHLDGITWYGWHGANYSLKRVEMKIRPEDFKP
As to the kind of experiment: BLI Octet HTX; IgG on AHC sensor; P66 at 200 nM; 1:1 fit. As to the method:
as §1, with “([…])” for “(KD)”, “rabbit” for “mouse”, “Rx PBS,” for “1×PBS,”, “min.” for “mA.”, “P66 (rabbit ANGPTL7-his)” for “muANGPTL7-his (R&D Systems)”, “6).” for “5).”

The target in assay [5] is T3, P60 (huANGPTL7-Fibrinogen-his). Kind of assay: BLI Octet HTX; IgG on AHC sensor; P60 at 200 nM. The method, then: as §2

B1: ATX-P-447 (antibody, human IgG1, kappa, N297A, V domains shown)
VH: EVQLVESGGGLVQPGGSLRLSCAASGFTISDYDMHWVRQTTGKGLEWVSGIDPDGDTYYPGSLKGRFTISRENAKNSLYLQMNSLRAGDTAVYYCTRGEDSSSSEDAFDIWGQGTMVTVSS
VL: not shown
notes: Full chains (VH + hIgG1-Agly-Fc)
Consider B1, for which the figures for the binding result (in the assay with P62 (huANGPTL7-his); in assay [2]; in assay [5]) were “binds”, “no binding (tested: 200 nM)” and “no binding (tested: 200 nM)”, respectively. Moreover, the Response was 0.12 nm in assay [1], 0.08 nm in assay [3], 0.91 nm in assay [4] and 0.65 nm in the assay with P66 (rabbit ANGPTL7-his). Moreover, in the assay with P66 (rabbit ANGPTL7-his), the Kd worked out at 3.33 nM.

B2: ATX-P-444 (antibody, human IgG1, kappa, N297A, V domains shown)
VH: EVQLVESGGGLVQPGGSLRLSCAASGFTLSVYDMHWVRQVSGKGLEWVSGIDPDGDTYYPGSVKGRFTISRENAKNSLYLQMNSLRVGDTAVYYCLRGEESNSSEDGFDIWGQGTMVTVSS
VL: not shown
notes: as for B1
For the molecule B2, the Response in assay [1] amounted to 0.01 nm; in assay [3], 0.14 nm; in assay [4] it was 0.7 nm. The binding result in assay [2] and in assay [5] was “no binding (tested: 200 nM)” in each case.

B3: ATX-P-445 (antibody, human IgG1, kappa, N297A, V domains shown)
VH: EVQLVESGGGLVQPGGSLRLSCAASGFTFSSHDMHWVRQVTGKGLEWVSGIDPAGDTYYPDSVKGRFTISRENAKNSLYLQMNSLRAGDTAVYYCTRGEASSSSEDAFDIWGQGTMVTVSS
VL: not shown
notes: as for B1
As to B3, the values for the Response in assay [1], in assay [3] and in assay [4] were 0.01 nm, 0.12 nm and 0.8 nm, respectively. Also, the binding result in assay [2] and in assay [5] was “no binding (tested: 200 nM)” in each case.

B4: ATX-P-446 (antibody, human IgG1, kappa, N297A, V domains shown)
VH: EVQLVESGGGLVQPGGSLRLSCAASGFTLSSYDMHWVRQVIGKGLEWVSGIDPDGDTYYPGSVKGRFTISREDAKNSLYLQMNSLRAGDTAVYYCTRGEDNSSSEDAFDIWGQGTMVTVSS
VL: not shown
notes: as for B1
With B4, the Response was found to be 0.05 nm in assay [1], 0.09 nm in assay [3], 0.75 nm in assay [4] and 0.41 nm in the assay with P66 (rabbit ANGPTL7-his). For the same molecule, the binding result in assay [2] and in assay [5] was “no binding (tested: 200 nM)” each time. In addition, the Kd in the assay with P66 (rabbit ANGPTL7-his) was found to be 3.19 nM.

B5: ATX-P-438 (antibody, human IgG1, kappa, N297A, V domains shown)
VH: QVQLVESGGGVVQPGRSLRLSCAASGFTFSSYGMHWVRQAPGKGLEWVAIISYDGNNKYYADSVKGRFTISRDNSKNTLYLQMNSLRDEDTAVYYCAKERGYSSSSGYYYYYMDVWGKGTTVTVSS
VL: EIVLTQSPGTLSLSPGERATLSCRASQSVSRSYLAWYQQKPGQAPRLLIIGASTRATGIPDRFSGSGSGTDFTLTISRLEPEDFAVYYCQQGQVIPPTFGQGTKVEIKR
notes: as for B1
As for B5, the Response was determined as 0.01 nm in assay [1], 0.08 nm in assay [3], 0.6 nm in assay [4] and 0.42 nm in the assay with P66 (rabbit ANGPTL7-his). The binding result in assay [2] and in assay [5] was “no binding (tested: 200 nM)” each time. Also, the Kd in assay [4] turned out to be 65.3 nM; with P66 (rabbit ANGPTL7-his), 7.16 nM.

B6: ATX-P-433 (antibody, IgG1, V domains shown)
VH: EVQLVESGGGLVQPGRSLRLSCAASGFTFDDFAMHWVRQGPGKGLEWVSGIGWNSGSIGYADSVKGRFTISRDNAKNSLYLQMNSLRAEDTALYYCAKAPDYGDYYFDYWGQGTLVTVSS
VL: DIQMTQSPSSLSASVGDRVTITCRASQSISIYLNWYQQKPGTAPKLLIYAASSLQSGVPSRFSGSGSGTDFTLTISSLQPEDFAAYYCQQSYTTPLTFGGGTKVEIKR
notes: as for B1
As to B6, in the assay with P62 (huANGPTL7-his), the Kd came to 1.3 nM; the koff (in general, the first-order rate constant of dissociation) amounted to 0.00056 s⁻¹; the kon (as a rule, the second-order rate constant of association) amounted to 431000 M⁻¹ s⁻¹. In assay [3], this molecule returned a Kd of 10.9 nM, a Response of 0.66 nm, a koff of 0.00243 s⁻¹ and a kon of 223000 M⁻¹ s⁻¹. For the same molecule, the Response in assay [4] was 0.72 nm. In the assay with P66 (rabbit ANGPTL7-his), this molecule displayed a Kd of 7.02 nM, a Response of 0.9 nm, a koff of 0.000727 s⁻¹ and a kon of 104000 M⁻¹ s⁻¹.

(Values after patent publication US20250296996A1 (BROADWING BIO, published 2025).)
